Source: article PMC12302927

What was measured:
Test in all cases: co-IP; 293T cells co-transfected with HA-tagged STAT1 (WT, K193R, K584R) and FLAG-p300; band intensities quantified; which protein was precipitated not given
HA-tagged STAT1 (WT) = HA-tagged STAT1 (WT) (UniProt P42224)
HA-tagged STAT1 K193R = HA-tagged STAT1 K193R (UniProt P42224)
HA-tagged STAT1 K584R = HA-tagged STAT1 K584R (UniProt P42224)

relative co-IP band intensity (HA-tagged STAT1 (WT)): 0.202
relative co-IP band intensity (HA-tagged STAT1 K193R): 0.194
relative co-IP band intensity (HA-tagged STAT1 K584R): 0.239
Substance: FLAG-p300, Q09472 1-2414
